Source: paper PMC6309224

Key:
[1] = molecular target: DIP-β ectodomain (isoform C Ile82-Glu408) (Drosophila melanogaster); assay: SPR
[2] = molecular target: Dpr21 ectodomain (Asp48-Asp253) (Drosophila melanogaster); assay: AUC
[3] = molecular target: DIP-η ectodomain (isoform B Gln31-Pro338) (Drosophila melanogaster); assay: SPR
[4] = molecular target: DIP-ι ectodomain (Phe23-Ala325) (Drosophila melanogaster); assay: SPR
[5] = molecular target: DIP-θ ectodomain (Asp128-Pro423) (Drosophila melanogaster); assay: SPR
[6] = molecular target: DIP-α ectodomain (isoform A Phe40-Pro341) (Drosophila melanogaster); assay: AUC
[7] = molecular target: Dpr12 ectodomain (Dpr12C Ser72-Asp285) (Drosophila melanogaster); assay: AUC
[8] = molecular target: DIP-α ectodomain (isoform A Phe40-Pro341) (Drosophila melanogaster); assay: SPR
[9] = molecular target: DIP-ε ectodomain (Glu50-Ser351) (Drosophila melanogaster); assay: SPR
[10] = molecular target: DIP-ζ ectodomain (isoform A Glu111-Tyr412) (Drosophila melanogaster); assay: SPR
[11] = molecular target: DIP-ζ ectodomain (isoform A Glu111-Tyr412) (Drosophila melanogaster); assay: AUC
[12] = molecular target: DIP-η ectodomain (isoform B Gln31-Pro338) (Drosophila melanogaster); assay: AUC

Work on “Dpr10 ectodomain (Dpr10D Trp50-Glu255) (domain or fragment)” yielded a Kd [1] of 54.9 µM.

Substance “Dpr21 ectodomain (Asp48-Asp253) (domain or fragment)” has a Kd [2] of 49.1 µM.

“Dpr2 ectodomain (Dpr2F Tyr103-Glu323) (domain or fragment)” was tested, and the Kd [3] was 41 µM and the Kd [4] was 22.4 µM.

Substance “Dpr6 ectodomain (Dpr6C Trp70-Glu275) (domain or fragment)” has a Kd [1] of 19.4 µM.

“Dpr6 N102D H110K V164K ectodomain (domain or fragment)” was tested, and the Kd [3] was 119 µM and the Kd [5] was 72 µM.

For “DIP-α ectodomain (isoform A Phe40-Pro341) (domain or fragment)”, the Kd [6] was 23.9 µM.

In the case of “Dpr12 ectodomain (Dpr12C Ser72-Asp285) (domain or fragment)”, the Kd [7] is reported as 71.3 µM.

“Dpr4 K82H K136V ectodomain (domain or fragment)” was tested, and the Kd [8] was 44.9 µM, the fold weaker binding than wild-type Dpr4 [3] was greater than 4 fold and the fold weaker binding than wild-type Dpr4 [5] was greater than 4 fold.

“Dpr11 ectodomain (Dpr11B Leu114-Glu324) (domain or fragment)” showed a Kd [1] of 94 µM.

For “Dpr14 ectodomain (Dpr14A Thr26-Glu283) (domain or fragment)”, the Kd [9] was 69.2 µM and the Kd [10] was 106 µM.

For “Dpr4 D74N A76T K82H K136V ectodomain (domain or fragment)”, the Kd [8] was 16 µM.

For “Dpr18 ectodomain (His214-Glu478) (domain or fragment)”, the Kd [9] was 21.2 µM and the Kd [10] was 24.7 µM.

For “Dpr7 ectodomain (Dpr7F Thr37-Glu269) (domain or fragment)”, the Kd [4] was 136 µM.

Work on “DIP-ζ ectodomain (isoform A Glu111-Tyr412) (domain or fragment)” yielded a Kd [11] of 22.2 µM.

With “DIP-η ectodomain (isoform B Gln31-Pro338) (domain or fragment)” the Kd [12] was 35.4 µM.

Work on “Dpr4 K82H ectodomain (domain or fragment)” yielded a Kd [8] greater than 400 µM.

“Dpr6 H110K ectodomain (domain or fragment)” showed a fold decrease in binding against wild-type Dpr6 [8] of 25 fold.
